Square brackets hold non-standard residues; d marks the D form. Ends that are not written are not given here. Arg(Me2a) = CN(C)C(=N)NCCC[C@H](N)C(=O)O A value given as a limit tells only on which side of the number the result lay.

This assay concerns the target TDRD3 (aa 520–633) (human, UniProt Q9H7E2 520-633). Briefly: ITC. (In general: ITC needs no label: the signal is the heat of the interaction.)

As a reminder, the Kd is the equilibrium constant for the complex coming apart. A lower Kd goes with higher affinity. For TG[Arg(Me2a)]ARARA [PIWIL1_R4me2a peptide (TGRme2aARARA)], the Kd is above 500 µM.

For the origin of these results see article PMC3281842 (2012).
